Laboratory results published in PMC6764942, “TFF3 interacts with LINGO2 to regulate EGFR activation for protection against colitis and gastrointestinal helminths” (Nature Communications, 2019).
Where no end group is shown, it is not given here.

Target: T1, LINGO2-GFP on HEK293 transfectants (mouse, UniProt Q3URE9 28-606)
T1 construct: LINGO2, mouse, from pCMV3-mLINGO2-GFP; also called GFP-LINGO2; pCMV3-mLINGO2-GFP; source: HEK293, transfected, on cells
T1 sequence (looked up): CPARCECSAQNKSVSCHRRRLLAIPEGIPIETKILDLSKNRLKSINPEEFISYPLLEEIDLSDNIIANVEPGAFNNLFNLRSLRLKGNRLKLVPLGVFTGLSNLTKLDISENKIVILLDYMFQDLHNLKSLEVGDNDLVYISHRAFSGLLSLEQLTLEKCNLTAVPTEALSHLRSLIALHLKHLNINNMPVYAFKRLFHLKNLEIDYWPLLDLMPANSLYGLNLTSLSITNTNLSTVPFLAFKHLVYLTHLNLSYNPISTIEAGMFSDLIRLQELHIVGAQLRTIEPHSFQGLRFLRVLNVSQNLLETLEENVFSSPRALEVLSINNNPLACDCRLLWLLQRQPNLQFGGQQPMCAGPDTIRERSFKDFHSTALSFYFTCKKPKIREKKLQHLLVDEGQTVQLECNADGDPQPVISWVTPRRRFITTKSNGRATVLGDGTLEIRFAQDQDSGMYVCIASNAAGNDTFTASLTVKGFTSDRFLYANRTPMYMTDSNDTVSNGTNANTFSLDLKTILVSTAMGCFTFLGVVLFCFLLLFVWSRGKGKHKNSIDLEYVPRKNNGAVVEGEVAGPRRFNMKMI
Assay: flow cytometry on cells; HEK293 transfected with GFP-labeled receptors, 24 h later incubated with PBS or 3 ug Alexa Fluor 647 labeled soluble ligand for 16 h at 4 C; double positive (GFP and AF-647) cells counted
Details: one partner purified

- fold increase in double-positive cells compared to PBS or IL-2-647: 12 fold
B1: TFF3-647 (murine recombinant TFF3 labeled with Alexa Fluor 647) (ligand, mouse, UniProt Q62395 23-81, looked up)
chain: ADYVGLSPSQCMVPANVRVDCGYPSVTSEQCNNRGCCFDSSIPNVPWCFKPLQETECTF
modifications: ends and bridges not checked; also: Alexa Fluor 647 label, site not given here
notes: Trefoil factor 3, mouse, recombinant (Peprotech); A commercial recombinant TFF3 is probably the mature protein (surmise); source: bought: Peprotech
